The target of data set [1] is T1, McrA (rMcrA-S, C-terminal StrepII) (Escherichia coli, UniProt P24200 P24200:1-277).
T1 sequence: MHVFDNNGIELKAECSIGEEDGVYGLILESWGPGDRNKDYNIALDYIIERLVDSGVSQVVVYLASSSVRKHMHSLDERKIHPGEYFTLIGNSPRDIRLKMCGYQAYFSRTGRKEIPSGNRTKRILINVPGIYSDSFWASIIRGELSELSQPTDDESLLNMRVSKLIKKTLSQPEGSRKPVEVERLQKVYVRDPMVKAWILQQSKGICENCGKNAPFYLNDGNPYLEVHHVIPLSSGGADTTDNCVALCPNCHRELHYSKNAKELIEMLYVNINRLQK
The data set can be described thus: EMSA; Ym5CGR somewhat higher affinity. The note with it: tags: C-terminal StrepII SAWSHPQFEK
The protocol: (§1) EMSA binding assays. Reactions (10 μl) typically contained a mixture of 10-25 pMol of various test DNAs, and 250 ng sonicated E. coli. ER2925DNA as a non-methylated, non-specific competitor in 50 mM Tris-HCl, 100 mM NaCl, 1 mM dithiothreitol, 10 mM MgCl₂ (NEBuffer #3), supplemented, with 100 μg/ml BSA. We started the reactions adding 25-175 pMol McrA-S; after 45 min at RT, the entire sample was loaded on 10% acrylamide Tris-Acetate/EDTA gel (1×TAE: 40 mM Tris-Acetate, 1 mM disodium EDTA) which was electrophoresed at RT. Thereafter, the gels were stained with ethidium bromide (0.5 μg/ml) at RT and visualized with UV light. Then, we stained the gels with Coomassie Blue to detect rMcrA-S.
(Mobility shift assays separate free from complexed probe on a gel.)

For data set [2], the target named is T1, McrA (rMcrA-S, C-terminal StrepII). The data set can be described thus: EMSA; NEBuffer 3, RT. As to conditions: tags: C-terminal StrepII SAWSHPQFEK
The protocol:
as §1

Data set [3] has the same target. The data set can be described thus: EMSA; C opposite m5C. The note with it: tags: C-terminal StrepII SAWSHPQFEK; mismatch C opposite m5C. The protocol: as §1
(§2) We next tested the ability of rMcrA-S to gel-shift ds-cassettes wherein an A, C, T, U, or I residue is placed opposite the m⁵C.

Data set [4] has the same target. The data set can be described thus: EMSA; T opposite m5C. The note with it: tags: C-terminal StrepII SAWSHPQFEK; mismatch T opposite m5C. The procedure:
as §1, §2

Data set [5] shares this target. Nature of the data set: EMSA; A opposite m5C. As to conditions: tags: C-terminal StrepII SAWSHPQFEK; mismatch A opposite m5C. The procedure: as §1, §2
The target is the same in data set [6]. Nature of the data set: EMSA; NEBuffer 3, 100 mM NaCl, 10 mM MgCl2, RT. The note with it: tags: C-terminal StrepII SAWSHPQFEK
The protocol: as §1

The target is the same in data set [7]. Nature of the data set: EMSA; hemimethylated. As to conditions: tags: C-terminal StrepII SAWSHPQFEK
The procedure:
as §1, §2

Data set [8] shares this target. The data set can be described thus: EMSA; U opposite m5C. As to conditions: tags: C-terminal StrepII SAWSHPQFEK; mismatch U opposite m5C. The procedure: as §1, §2
The target is the same in data set [9]. Nature of the data set: EMSA; high affinity; NEBuffer 3, RT; Mg independent. As to conditions: tags: C-terminal StrepII SAWSHPQFEK
The procedure: as §1

B1: Tm5CGG cassette (dsDNA)
DNA 1: CCCTCTGTCGGAGGAGGCTCCTGC
DNA 2: GCAGGAGCCTCCTCCGACAGAGGG
modifications: 5mC at CpG (M.SssI), top 9, bottom 15
For the molecule B1, the binding result in data set [1] is “binds”.

B2: Am5CGA cassette (dsDNA)
DNA 1: CCCTCTGACGAAGGAGGCTCCTGC
DNA 2: GCAGGAGCCTCCTTCGTCAGAGGG
modifications: 5mC at CpG (M.SssI), top 9, bottom 15
For the molecule B2, the binding result in [2] is “binds”.

B3: Gm5CGA cassette (dsDNA)
DNA 1: CCCTCTGGCGAAGGAGGCTCCTGC
DNA 2: GCAGGAGCCTCCTTCGCCAGAGGG
modifications: 5mC at CpG (M.SssI), top 9, bottom 15
For the molecule B3, the binding result in data set [2] is given as “binds”.

B4: Cm5CGA cassette (dsDNA)
DNA 1: CCCTCTGCCGAAGGAGGCTCCTGC
DNA 2: GCAGGAGCCTCCTTCGGCAGAGGG
modifications: 5mC at CpG (M.SssI), top 9, bottom 15
Take B4: the binding result in data set [1] was “binds”.

B5: m5C/C mismatch cassette (dsDNA)
DNA 1: GCCTTCAGCGCCGGCGGATCCAGT
DNA 2: ACTGGATCCGCCCGCGCTGAAGGC
modifications: 5mC at position 12 of top strand only
Consider B5, for which the binding result in [3] is given as “no binding”.

B6: m5CGT cassette (dsDNA)
DNA 1: CCCTCTGACGTAGGAGGCTCCTGC
DNA 2: GCAGGAGCCTCCTACGTCAGAGGG
modifications: 5mC at CpG (M.SssI), top 9, bottom 15
For B6, the binding result in [2] was “no binding”.

B7: Cm5CGG cassette (M.SssI) (dsDNA)
DNA 1: CCCTCTGCCGGAGGAGGATCCTGC
DNA 2: GCAGGATCCTCCTCCGGCAGAGGG
modifications: 5mC at CpG (M.SssI), top 9, bottom 15
Turning to B7, the binding result in [1] is listed as “binds”.

B8: m5C/T mismatch cassette (dsDNA)
DNA 1: GCCTTCAGCGCCGGCGGATCCAGT
DNA 2: ACTGGATCCGCCTGCGCTGAAGGC
modifications: 5mC at position 12 of top strand only
Take B8: the binding result in [4] is “no binding”.

B9: Am5CGG cassette (dsDNA)
DNA 1: CCCTCTGACGGAGGAGGCTCCTGC
DNA 2: GCAGGAGCCTCCTCCGTCAGAGGG
modifications: 5mC at CpG (M.SssI), top 9, bottom 15
Regarding B9, in [2], the binding result is listed as “binds”.

B10: m5C/A mismatch cassette (dsDNA)
DNA 1: GCCTTCAGCGCCGGCGGATCCAGT
DNA 2: ACTGGATCCGCCAGCGCTGAAGGC
modifications: 5mC at position 12 of top strand only
Consider B10, for which, in data set [5], the binding result is recorded as “no binding”.

B11: three m5CpG cassette (dsDNA)
DNA 1: GCCTTCAGCGCCGGCGGATCCAGT
DNA 2: ACTGGATCCGCCGGCGCTGAAGGC
modifications: 5mC at positions 9, 12, 15 of both strands
Consider B11, for which, in data set [6], the binding result is on record as “binds”.

B12: Gm5CGG cassette (dsDNA)
DNA 1: CCCTCTGGCGGAGGAGGCTCCTGC
DNA 2: GCAGGAGCCTCCTCCGCCAGAGGG
modifications: 5mC at CpG (M.SssI), top 9, bottom 15
Take B12: the binding result in data set [2] is on record as “binds”.

B13: hemimethylated Cm5CGG cassette (m5C/G) (dsDNA)
DNA 1: GCCTTCAGCGCCGGCGGATCCAGT
DNA 2: ACTGGATCCGCCGGCGCTGAAGGC
modifications: 5mC at position 12 of top strand only
As for B13, the binding result in data set [7] was “binds”.

B14: m5C/U mismatch cassette (dsDNA)
DNA 1: GCCTTCAGCGCCGGCGGATCCAGT
DNA 2: ACTGGATCCGCCUGCGCTGAAGGC
modifications: 5mC at position 12 of top strand only; U in bottom strand opposite m5C
In the case of B14, the binding result in data set [8] was “no binding”.

B15: Cm5CGG cassette (single methylated HpaII site) (dsDNA)
DNA 1: GCCTTCAGCGCCGGCGGATCCAGT
DNA 2: ACTGGATCCGCCGGCGCTGAAGGC
modifications: 5mC at position 12 of both strands
Take B15: the binding result in data set [9] is given as “binds”.

B16: Tm5CGA cassette (dsDNA)
DNA 1: CCCTCTGTCGAAGGAGGCTCCTGC
DNA 2: GCAGGAGCCTCCTTCGACAGAGGG
modifications: 5mC at CpG (M.SssI), top 9, bottom 15
Take B16: in [1], the binding result was “binds”.

B17: m5CGC cassette (dsDNA)
DNA 1: CCCTCTGACGCAGGAGGCTCCTGC
DNA 2: GCAGGAGCCTCCTGCGTCAGAGGG
modifications: 5mC at CpG (M.SssI), top 9, bottom 15
For B17, the binding result in [2] is reported as “no binding”.
